For this test, the target named is Acinetobacter sp. Ver3 iron superoxide dismutase (^AV3SodB) (Acinetobacter sp. Ver3). Description: crystal structure.

Among the data in publication doi:10.1101/2021.10.11.463953 are stoichiometry N values, retold here.

As a reminder, the stoichiometry N is the number of molecules, sites or subunits per partner or assembly. The substance “Acinetobacter sp. Ver3 iron superoxide dismutase (^AV3SodB) (enzyme)” displayed a stoichiometry N of 2.
